Broadly, the Kd is a measure of binding affinity in units of concentration. A lower Kd goes with tighter binding. Usually EC50 (read off the curve) stands for the concentration giving half of the maximal effect. Lower therefore signals an effect from little substance.

From patent US20170355766A1 (Xencor, published 2017) come the findings set out here.

Assay [1] concerns the target T1, human FcγRIIb receptor protein (R&D Systems) (human, UniProt P31994 46-217).
T1 construct: Analyte injected over antibodies captured on a protein A/G chip (Biacore); also called CD32b
T1 sequence (looked up): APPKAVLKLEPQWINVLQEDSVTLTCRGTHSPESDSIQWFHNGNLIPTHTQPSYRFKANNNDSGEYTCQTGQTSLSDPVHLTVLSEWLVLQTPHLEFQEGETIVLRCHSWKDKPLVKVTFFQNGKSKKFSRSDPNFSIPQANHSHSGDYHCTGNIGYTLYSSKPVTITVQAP
As to the kind of experiment: Biacore SPR ('according to the data herein'). On the procedure:
(§1) Variants were screened for receptor affinity using Biacore™ technology, also referred to as Biacore herein, a surface plasmon resonance (SPR) based technology for studying biomolecular interactions in real time. SPR measurements were performed using a Biacore 3000 instrument (Biacore, Piscataway, N.J.). A protein A/G (Pierce Biotechnology) CM5 biosensor chip (Biacore) was generated using a standard primary amine coupling protocol. All measurements were performed using HBS-EP buffer (10 mM HEPES pH 7.4, 0.15 M NaCl, 3 mM EDTA, 0.005% vol/vol surfactant P20, Biacore). Antibodies at 20 nM or 50 nM in HBS-EP buffer were immobilized on the protein A/G surface and FcγRs were injected. After each cycle, the surface was regenerated by injecting glycine buffer (10 mM, pH 1.5). Data were processed by zeroing time and response before the injection of FcγR and by subtracting appropriate nonspecific signals (response of reference channel and injection of running buffer). Kinetic analyses were performed by global fitting of binding data with a 1:1 Langmuir binding model using BIAevaluation software (Biacore).
A general note: In SPR one partner is held on a chip, and binding of the other changes the refractive index at the surface.

The target in assay [2] is T2, human FcγRI receptor protein (R&D Systems) (human, UniProt P12314 16-288).
T2 construct: also called CD64
T2 sequence (P12314 16-288 limits assumed): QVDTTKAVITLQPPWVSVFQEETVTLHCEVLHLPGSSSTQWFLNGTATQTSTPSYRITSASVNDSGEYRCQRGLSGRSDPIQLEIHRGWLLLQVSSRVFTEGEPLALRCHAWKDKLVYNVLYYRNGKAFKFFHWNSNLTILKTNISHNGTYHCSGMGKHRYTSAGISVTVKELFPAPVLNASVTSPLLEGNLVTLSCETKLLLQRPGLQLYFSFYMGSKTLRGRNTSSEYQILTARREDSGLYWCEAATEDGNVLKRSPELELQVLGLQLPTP
As to the kind of experiment: SPR (Biacore).

For assay [3], the target named is T1, human FcγRIIb receptor protein (R&D …). As to the kind of experiment: SPR (Biacore).
Assay [4] addresses T3, human H131 FcγRIIa receptor protein (6xHis and GST tags) (human, UniProt P12318 34-217, limits assumed).
T3 construct: also called HIIa
T3 sequence (looked up): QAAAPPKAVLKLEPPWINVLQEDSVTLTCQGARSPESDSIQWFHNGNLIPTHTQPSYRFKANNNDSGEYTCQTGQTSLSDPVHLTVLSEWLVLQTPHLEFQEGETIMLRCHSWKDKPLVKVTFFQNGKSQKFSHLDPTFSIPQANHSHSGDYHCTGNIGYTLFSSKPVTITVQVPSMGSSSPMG
As to the kind of experiment: SPR (Biacore).

Another assay has as its target T4, FcγRIIaR (human, UniProt P12318).
T4 construct: recombinant receptor protein with 6xHis and GST tags; also called R131 FcγRIIa
T4 sequence (receptor, looked up): T3 sequence (looked up) with H134R
As to the kind of experiment: SPR (Biacore).

Assay [5] deals with T5, human V158 FcγRIIIa receptor protein (6xHis and GST tags) (human, UniProt P08637 17-208, limits assumed).
T5 construct: also called VIIIa
T5 sequence (P08637 17-208 F176V limits assumed): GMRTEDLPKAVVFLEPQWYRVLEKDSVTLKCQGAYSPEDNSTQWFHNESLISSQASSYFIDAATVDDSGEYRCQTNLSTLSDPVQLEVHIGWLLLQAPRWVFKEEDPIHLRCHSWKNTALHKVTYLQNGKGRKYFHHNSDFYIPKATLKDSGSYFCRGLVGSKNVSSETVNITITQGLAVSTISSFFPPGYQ
As to the kind of experiment: SPR (Biacore).

For a further assay, the target named is T6, FcγRIIIaF (human, UniProt P08637).
T6 construct: recombinant receptor protein with 6xHis and GST tags; also called F158 FcγRIIIa
T6 sequence (P08637 17-208 limits assumed): as the sequence (P08637 17-208 F176V limits assumed) above, with V160F counted along it
As to the kind of experiment: SPR (Biacore).

Assay [6] has as its target T7, human FcγRIIb on the cell surface (HEK293T cells transfected with human FcγRIIb cDNA; primary human B cells) (human, UniProt P31994 43-310).
T7 chain: T1 sequence (looked up)
Nature of the assay: flow cytometry on FcγRIIb-transfected HEK293T cells. On the technique in general: Flow cytometry measures light scatter and fluorescence of single cells or particles in a stream.

Assay [7] deals with T7, human FcγRIIb on the cell surface …. The description is as above.
For assay [8] the target is unchanged. The assay is described as above.
Assay [9] has the same target. As to the kind of experiment: flow cytometry on HEK293T cells transfected with human FcγRIIb, PE anti-human Fab detection.
Assay [10] has as its target T1, human FcγRIIb receptor protein (R&D …). Nature of the assay: Biacore SPR, antibody captured on protein A/G, FcγR injected. On the procedure:
as §1

Positions count from the first letter of the chain named. Numbers in names are those of the source. Like-named read-outs stand apart in the source and are kept apart here. Bounds are passed on as bounds.

B1: anti-CD19 WT IgG1 antibody (HuAM4G7 Fv, native human IgG1 Fc) (antibody)
heavy: not shown
light: DIVMTQSPATLSLSPGERATLSCRSSKSLQNVNGNTYLYWFQQKPGQSPQLLIYRMSNLNSGVPDRFSGSGSGTEFTLTISSLEPEDFAVYYCMQHLEYPITFGAGTKLEIKRTVAAPSVFIFPPSDEQLKSGTASVVCLLNNFYPREAKVQWKVDNALQSGNSQESVTEQDSKDSTYSLSSTLTLSKADYEKHKVYACEVTHQGLSSPVTKSFNRGEC
notes: Parent of the Fc variants; also called anti-CD19-IgG1; anti-CD19 IgG1 WT; copies: 2 + 2
Regarding B1, the Kd in assay [1] is ~1500 nM. For the same molecule, the “Fold FcγRI” value in assay [2] was determined as 1 fold. In assay [3], the “Fold FcγRIIb” value came out at 1 fold. Also, the “Fold FcγRIIaH” value in assay [4] is 1 fold. Besides, the “Fold FcγRIIaR” value with FcγRIIaR was 1 fold. In addition, in assay [5], the “Fold FcγRIIIaV” value came out at 1 fold.

B2: ^236R/L328R (antibody, human IgG1, kappa)
heavy: EVQLVESGGGLVKPGGSLKLSCAASGYTFTSYVMHWVRQAPGKGLEWIGYINPYNDGTKYNEKFQGRVTISSDKSISTAYMELSSLRSEDTAMYYCARGTYYYGTRVFDYWGQGTLVTVSSASTKGPSVFPLAPSSKSTSGGTAALGCLVKDYFPEPVTVSWNSGALTSGVHTFPAVLQSSGLYSLSSVVTVPSSSLGTQTYICNVNHKPSNTKVDKKVEPKSCDKTHTCPPCPAPELLGRGPSVFLFPPKPKDTLMISRTPEVTCVVVDVSHEDPEVKFNWYVDGVEVHNAKTKPREEQYNSTYRVVSVLTVLHQDWLNGKEYKCKVSNKARPAPIEKTISKAKGQPREPQVYTLPPSREEMTKNQVSLTCLVKGFYPSDIAVEWESNGQPENNYKTTPPVLDSDGSFFLYSKLTVDKSRWQQGNVFSCSVMHEALHNHYTQKSLSLSPGK
light: B1 light
notes: HuAM4G7 IgG1 Fc variant; also called Fc-KO; FcγR knockout
On to B2, for which the binding result (in assay [2]; in assay [3]; in [4]; in the assay with FcγRIIIaF; in the assay with FcγRIIaR; in assay [5]) was “no binding” throughout.

B3: anti-CD19 antibody HuAM4G7 IgG1 Fc variant S267E (antibody)
heavy: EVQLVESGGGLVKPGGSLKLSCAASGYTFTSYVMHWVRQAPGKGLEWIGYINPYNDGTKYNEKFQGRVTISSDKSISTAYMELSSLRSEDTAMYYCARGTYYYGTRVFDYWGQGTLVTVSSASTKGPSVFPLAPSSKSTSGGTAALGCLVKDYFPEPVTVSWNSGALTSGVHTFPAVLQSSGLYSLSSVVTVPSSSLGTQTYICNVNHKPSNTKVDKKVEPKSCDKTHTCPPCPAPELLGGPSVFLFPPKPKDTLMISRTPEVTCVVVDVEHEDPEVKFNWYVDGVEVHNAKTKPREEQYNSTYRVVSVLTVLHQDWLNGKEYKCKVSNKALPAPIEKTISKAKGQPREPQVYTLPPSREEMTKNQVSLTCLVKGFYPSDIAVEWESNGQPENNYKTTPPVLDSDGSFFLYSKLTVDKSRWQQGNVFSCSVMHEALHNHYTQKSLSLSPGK
light: B1 light
notes: Positions are EU numbers, not positions on the UniProt entry; copies: 2 + 2
With B3, the “EC50 (read off the curve)” value is ~20 ng/mL in assay [6] and ~30 ng/mL in assay [7]. For the same molecule, the “Fold FcγRI” value in [2] is 2.81 fold. Moreover, the “Fold FcγRIIb” value in assay [3] is 20.4 fold. Besides, in the assay with FcγRIIaR, the “Fold FcγRIIaR” value was determined as 29.5 fold. Besides, the “Fold FcγRIIIaV” value in assay [5] was found to be 0.381 fold.

B4: anti-CD19 antibody HuAM4G7 IgG1 Fc variant L235Y/S267E (antibody)
heavy: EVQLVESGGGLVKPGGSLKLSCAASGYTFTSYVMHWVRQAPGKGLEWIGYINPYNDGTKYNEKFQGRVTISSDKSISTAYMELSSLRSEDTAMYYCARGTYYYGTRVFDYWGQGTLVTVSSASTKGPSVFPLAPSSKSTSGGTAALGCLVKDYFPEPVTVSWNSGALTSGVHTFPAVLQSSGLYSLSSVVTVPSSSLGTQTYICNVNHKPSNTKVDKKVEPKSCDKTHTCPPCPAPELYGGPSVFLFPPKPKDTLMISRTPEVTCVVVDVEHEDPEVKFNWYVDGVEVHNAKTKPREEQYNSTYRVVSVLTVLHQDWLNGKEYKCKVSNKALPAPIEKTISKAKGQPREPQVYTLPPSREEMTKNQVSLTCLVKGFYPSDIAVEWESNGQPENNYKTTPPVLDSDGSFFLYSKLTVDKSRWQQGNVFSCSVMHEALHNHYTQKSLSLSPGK
light: B1 light
notes: as for B3
Regarding B4, the concentration for a half-maximal effect (EC50 (read off the curve)) in assay [8] was ~6 ng/mL. For the same molecule, the “Fold FcγRI” value in [2] is 0.00347 fold. For the same molecule, in [3], the “Fold FcγRIIb” value came to 37.2 fold. The “Fold FcγRIIaH” value in assay [4] was determined as 0.941 fold. Moreover, the “Fold FcγRIIaR” value with FcγRIIaR was 37.5 fold.

B5: anti-CD19 antibody HuAM4G7 IgG1 Fc variant S267E/H268E (antibody)
heavy: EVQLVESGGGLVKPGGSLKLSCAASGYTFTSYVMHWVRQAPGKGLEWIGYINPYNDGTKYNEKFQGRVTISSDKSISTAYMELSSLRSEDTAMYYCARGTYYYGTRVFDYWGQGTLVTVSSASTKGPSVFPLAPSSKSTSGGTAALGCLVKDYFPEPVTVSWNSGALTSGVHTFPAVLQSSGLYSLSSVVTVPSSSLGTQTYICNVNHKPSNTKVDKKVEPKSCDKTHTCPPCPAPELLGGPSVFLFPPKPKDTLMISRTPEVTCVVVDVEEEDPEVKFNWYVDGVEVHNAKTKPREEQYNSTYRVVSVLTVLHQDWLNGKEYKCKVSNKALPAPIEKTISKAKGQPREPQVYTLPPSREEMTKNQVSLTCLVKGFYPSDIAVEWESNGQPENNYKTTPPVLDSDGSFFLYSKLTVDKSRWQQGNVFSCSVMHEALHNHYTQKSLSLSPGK
light: B1 light
notes: Positions are EU numbers, not positions on the UniProt entry; also called H268E/S267E; copies: 2 + 2
For the molecule B5, the “EC50 (read off the curve)” value in assay [7] is ~10 ng/mL. The “Fold FcγRI” value in assay [2] was 3.52 fold. In addition, the “Fold FcγRIIb” value in [3] turned out to be 40.6 fold. Further, in the assay with FcγRIIaR, the “Fold FcγRIIaR” value is 41.7 fold. Further, the “Fold FcγRIIIaV” value in [5] turned out to be 3.15 fold.

B6: S267E/A327E (antibody, human IgG1, kappa)
heavy: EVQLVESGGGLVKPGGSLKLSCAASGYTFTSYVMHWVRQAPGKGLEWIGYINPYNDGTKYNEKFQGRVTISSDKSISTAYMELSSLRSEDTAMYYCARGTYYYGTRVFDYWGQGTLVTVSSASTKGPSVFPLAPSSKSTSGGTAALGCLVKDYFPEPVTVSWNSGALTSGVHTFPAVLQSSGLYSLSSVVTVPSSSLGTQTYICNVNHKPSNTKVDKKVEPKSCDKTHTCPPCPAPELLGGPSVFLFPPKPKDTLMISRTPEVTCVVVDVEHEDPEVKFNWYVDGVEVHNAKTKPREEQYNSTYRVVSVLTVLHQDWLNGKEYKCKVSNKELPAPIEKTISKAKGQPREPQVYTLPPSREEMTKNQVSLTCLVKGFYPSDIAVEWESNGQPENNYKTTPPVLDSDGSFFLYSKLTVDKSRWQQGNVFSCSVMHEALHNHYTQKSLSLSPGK
light: B1 light
notes: HuAM4G7 IgG1 Fc variant
As for B6, the “EC50 (read off the curve)” value in assay [7] is ~10 ng/mL. Moreover, in assay [2], the “Fold FcγRI” value turned out to be 2.3 fold. The “Fold FcγRIIb” value in [3] came out at 30.9 fold. For the same molecule, in the assay with FcγRIIaR, the “Fold FcγRIIaR” value came out at 29.3 fold.

B7: V266M/S267E (antibody, human IgG1, kappa)
heavy: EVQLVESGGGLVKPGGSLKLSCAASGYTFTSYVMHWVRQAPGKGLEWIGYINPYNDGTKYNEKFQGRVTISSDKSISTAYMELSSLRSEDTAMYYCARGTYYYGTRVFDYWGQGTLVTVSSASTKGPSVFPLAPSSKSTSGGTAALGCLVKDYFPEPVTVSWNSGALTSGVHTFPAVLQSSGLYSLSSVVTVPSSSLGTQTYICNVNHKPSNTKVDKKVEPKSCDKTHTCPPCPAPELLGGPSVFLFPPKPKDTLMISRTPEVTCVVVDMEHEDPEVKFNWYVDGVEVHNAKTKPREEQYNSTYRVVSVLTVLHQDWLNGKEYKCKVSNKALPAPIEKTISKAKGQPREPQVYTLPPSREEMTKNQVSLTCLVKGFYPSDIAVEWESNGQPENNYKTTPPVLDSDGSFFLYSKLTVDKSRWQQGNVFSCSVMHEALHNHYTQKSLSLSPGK
light: B1 light
notes: HuAM4G7 IgG1 Fc variant
As for B7, the “EC50 (read off the curve)” value in assay [7] is ~10 ng/mL. The “Fold FcγRI” value in [2] worked out at 1.98 fold. The “Fold FcγRIIb” value in [3] was 29.2 fold. Also, the “Fold FcγRIIaR” value in the assay with FcγRIIaR amounted to 30.7 fold. Further, the “Fold FcγRIIIaV” value in assay [5] was determined as 0.0448 fold.

B8: anti-CD19 antibody S267E/L328F (HuAM4G7 Fv, human IgG1 Fc with S267E/L328F) (antibody)
heavy: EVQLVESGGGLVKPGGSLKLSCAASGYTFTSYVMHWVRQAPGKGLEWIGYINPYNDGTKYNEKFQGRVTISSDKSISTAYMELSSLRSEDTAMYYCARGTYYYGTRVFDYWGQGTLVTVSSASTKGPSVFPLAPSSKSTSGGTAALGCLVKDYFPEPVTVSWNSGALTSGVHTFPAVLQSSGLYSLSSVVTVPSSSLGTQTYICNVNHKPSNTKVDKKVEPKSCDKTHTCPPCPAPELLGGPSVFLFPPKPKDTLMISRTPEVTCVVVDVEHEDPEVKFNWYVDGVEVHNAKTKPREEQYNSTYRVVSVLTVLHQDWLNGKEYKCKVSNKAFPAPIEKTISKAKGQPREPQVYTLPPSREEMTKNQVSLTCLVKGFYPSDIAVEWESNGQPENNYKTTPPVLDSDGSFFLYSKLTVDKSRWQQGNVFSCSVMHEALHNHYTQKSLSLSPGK
light: B1 light
notes: They are treated here as one molecule; also called anti-CD19-S267E/L328F; a-CD19 S267E/L328F; copies: 2 + 2
In the case of B8, the “fold EC50 relative to WT IgG1” value in assay [9] is ~320 fold. In addition, in assay [2], the “Fold FcγRI” value was 1.5 fold. Also, the “Fold FcγRIIb” value in [3] is 242 fold. Moreover, in the assay with FcγRIIaR, the “Fold FcγRIIaR” value came to 275 fold. For the same molecule, the “Fold FcγRIIIaV” value in assay [5] came out at 0.038 fold. Moreover, the “improvement in affinity relative to WT IgG1” value in assay [10] was > 2 orders of magnitude.
